The values below come from patent US20120021995A1 (published 2012).

Residue numbers refer to the chain shown, from its start.

The chains are these.
T1: recombinant human TRAIL R1 (DR4)/Fc chimera (human, UniProt O00220 24-239)
T1 construct: bought (R&D Systems); not shown: Fc of the bought chimera (R&D Systems)
T1 sequence: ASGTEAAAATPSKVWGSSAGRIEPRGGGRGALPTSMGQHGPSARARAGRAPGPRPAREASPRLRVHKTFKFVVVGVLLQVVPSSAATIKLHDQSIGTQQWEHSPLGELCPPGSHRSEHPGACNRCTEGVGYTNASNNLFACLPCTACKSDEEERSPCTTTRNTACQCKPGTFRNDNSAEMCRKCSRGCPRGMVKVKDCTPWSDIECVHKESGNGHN

T2: DR4 (TRAIL-R1) on cancer cells (human, UniProt O00220 24-468)
T2 sequence: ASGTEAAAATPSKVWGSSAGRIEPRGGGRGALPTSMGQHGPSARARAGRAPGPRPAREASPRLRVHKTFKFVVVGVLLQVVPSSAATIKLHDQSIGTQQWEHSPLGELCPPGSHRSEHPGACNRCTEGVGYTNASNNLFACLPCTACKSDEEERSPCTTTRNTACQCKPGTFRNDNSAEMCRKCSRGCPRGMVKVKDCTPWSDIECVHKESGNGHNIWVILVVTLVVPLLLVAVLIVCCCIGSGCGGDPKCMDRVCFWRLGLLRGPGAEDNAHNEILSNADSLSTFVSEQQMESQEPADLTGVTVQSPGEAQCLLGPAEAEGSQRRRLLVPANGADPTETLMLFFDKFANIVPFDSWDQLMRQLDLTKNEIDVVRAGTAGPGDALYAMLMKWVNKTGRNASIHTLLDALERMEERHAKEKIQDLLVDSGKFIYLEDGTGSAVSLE

B1: 064-36.1E12 (designed binder)
chain: ALQTVCLKGTKVHMKCFLAFTQTKTFHEASEDCISRGGTLSTPQTGSENDALYEYLRQSVGNEAEIWLGLNGCTQGQGWVDMTGARIAYKNWETEITAQPDGGKKWKWENCAVLSGAANGKWFDKRCRDQLPYICQFGIV
notes: on phage
B2: 064-40.2G11 (designed binder)
chain: B1 chain with C73W, T74L, Q75E, Q77A, K104W, K105Q, K107R
notes: on phage
B3: 064-40.1G11 (designed binder)
chain: ALQTVCLKGTKVHMKCFLAFTQTKTFHEASEDCISRGGTLSTPQTGSENDALYEYLRQSVGNEAEIWLGLNVARWLLKWVDMTGARIAYKNWETEITAQPDGGMCKPCENCAVLSGAANGKWFDKRCRDQLPYICQFGIV
notes: on phage
B4: 064-40.1G9 (designed binder)
chain: B1 chain with C73W, T74L, Q75S, Q77V, K104W, K105A, W106H, K107A
notes: on phage
B5: 064-40.1E11 (designed binder)
chain: ALQTVCLKGTKVHMKCFLAFTQTKTFHEASEDCISRGGTLSTPQTGSENDALYEYLRQSVGNEAEIWLGLNWLSLFSPWVDMTGARIAYKNWETEITAQPDGGRGVRGENCAVLSGAANGKWFDKRCRDQLPYICQFGIV
notes: on phage
B6: 064-36.1G10 (designed binder)
chain: B1 chain with C73Y, T74L, Q77S, K104W, W106T, K107R
notes: on phage
B7: 064-40.2D9 (designed binder)
chain: B5 chain with L73Q, S74L, L75Y, F76Y, S77R, P78Y, R104V, V106C, R107M, G108V
notes: on phage
B8: 064-98.1G6 (designed binder)
chain: B1 chain with C73W, T74L, Q75S, Q77Y, K104R, K105V, K107S
notes: on phage
B9: 064-40.2C7 (designed binder)
chain: B5 chain with W72S, L73Y, S74R, F76H, S77Y, P78G, G105R, V106W, R107L
notes: on phage
B10: 064-36.1G4 (designed binder)
chain: B1 chain with G72R, T74L, Q77V, K104R, K105G, K107P
notes: on phage
B11: 064-40.2E10 (designed binder)
chain: B1 chain with C73Y, T74L, Q75D, Q77V, K104Q, K105G, W106C, K107R
notes: on phage
B12: 064-101.4B10 (designed binder)
chain: B5 chain with W72Q, L73W, S74V, L75A, S77W, P78S, R104S, G105A, R107S
notes: on phage
B13: 064-40.2A10 (designed binder)
chain: B1 chain with C73V, T74L, G76R, Q77G, K104P, K105G, W106G, K107E, W108R
notes: on phage
B14: 064-99.2H5 (designed binder)
chain: ALQTVCLKGTKVHMKCFLAFTQTKTFHEASEDCISRGGTLSTPQTGSENDALYEYLRQSVGNEAEIWLGLNGLLSDWWWVDMTGARIAYKNWETEITAQPDGGGNQSRENCAVLSGAANGKWFDKRCRDQLPYICQFGIV
notes: on phage
B15: 064-101.4H1 (designed binder)
chain: B5 chain with W72P, L73Y, S74T, L75S, F76W, S77G, P78L, R104V, V106G
notes: on phage
B16: 119p83P1A7′ (designed binder)
chain: ALQTVCLKGTKVHMKCFLAFTQTKTFHEASEDCISRGGTLSTPQTGSENDALYEYLRQSVGNEAEIWLGLNGWLEGVGWVDMTGARIAYKNWYSWPKLQPDGGWPFSNENCAVLSGAANGKWFDKRCRDQLPYICQFGIV
notes: on phage
B17: 119p83P1A12 (designed binder)
chain: B16 chain with Y93Q, S94P, W95G, P96L, K97W, L98R
notes: on phage
B18: 119p83P1C9 (designed binder)
chain: B16 chain with Y93G, S94G, W95E, P96V, K97L
notes: on phage
B19: 119p83P1A3 (designed binder)
chain: B16 chain with Y93V, S94A, W95K, P96D, K97H, L98E
notes: on phage
B20: 119p83P1A11 (designed binder)
chain: B16 chain with Y93D, S94A, W95P, P96V, K97S, L98G
notes: on phage
B21: 119p83P1A9 (designed binder)
chain: B16 chain with Y93V, S94Y, W95R, K97G, L98M
notes: on phage
B22: 119p83P1C11 (designed binder)
chain: B16 chain with Y93A, S94M, W95H, P96Y, K97Y, L98W
notes: on phage
B23: 119p83P1C12 (designed binder)
chain: B16 chain with Y93N, W95N, P96V, K97V
notes: on phage
B24: 71p88P1A1 (designed binder)
chain: EPPTQKPKKIVNAKKDVVNTKMFEELKSRLDTLAQEVALLKEQQALQTVCLKGTKVHMKCFLAFTQTKTFHEASEDCISRGGTLSTPQTGSENDALYEYLRQSVGNEAEIWLGLNGWMDGSGWVDMTGARIAYKNWETEITAQPDGGRLWRWENCAVLSGAANGKWFDKRCRDQLPYICQFGIV
B25: 71p88P1D9 (designed binder)
chain: B24 chain with M118V, D119A, S121V, R148G, L149G
B26: 71p88P1B12 (designed binder)
chain: B24 chain with M118I, D119E, S121A, R148W, L149R, W150S
B27: 71p88P1G11 (designed binder)
chain: B24 chain with D119A, S121V, R148P, L149G, W150L
B28: 71p88P1B9 (designed binder)
chain: B24 chain with M118L, D119A, R148G, L149G, R151P
B29: 71p88P1B4 (designed binder)
chain: B24 chain with M118L, D119E, S121Y, R148A, L149E, W150R, R151A

The first assay addresses T1, recombinant human TRAIL R1 (DR4)/Fc …. Put plainly: phage ELISA on DR4/Fc. As for the experimental part: The remaining overnight culture was used to make a master stock plate by adding 100 μL of 50% glycerol to each well and storing at −80° C. The replica culture plate was grown at 37° C. with shaking at 250 rpm for approximately 2 hrs until the OD₆₀₀ was 0.5-0.7. The wells were then infected with K07 helper phage to 5×10⁹ pfu/mL mixed and incubated at 37° C. for 30 minutes without shaking, then incubated an addition 30 minutes at 37° C. with shaking at 250 rpm. The cultures were then spun down at 2500 rpm and 4° C. for 20 minutes. The supernatants were removed from the wells and the bacterial cell pellets were re-suspended in 500 μL of 2xYT containing 50 μg/mL carbenicillin and 50 μg/mL kanamycin. An air-permeable membrane was placed on the culture block and cells were grown overnight at room temperature with shaking at 250 rpm.
On day 3, cultures were spun down and supernatants containing the phage were blocked with 3% milk/PBS for 1 hr at room temperature. An initial Phage ELISA was performed using 75-100 ng of antigen bound per well. Non-specific binding was measured using 75-100 ng of human IgG1 Fc per well. DR4/Fc antigen (R&D Systems)-coated wells and IgG Fc coated wells were prepared fresh the night before by binding the above amount of antigen diluted in 100 μL of PBS per well. Antigen plates were incubated overnight at 4° C. then for 1 hour at 37° C., washed twice with PBS/0.05% Tween 20 and twice with PBS, and then blocked with 3% milk/PBS for 1 hr at 37° C. prior to the ELISA. Blocked phage were bound to blocked antigen-bound plates for 1 hr then washed twice with 0.05% Tween 20/PBS and then twice more with PBS. A HRP-conjugated anti-M13 secondary antibody diluted in 3% milk/PBS was then applied, with binding for 1 hr and washing as described above. The ELISA signal was developed using 90 μL TMB substrate mix and then stopped with 90 μL 0.2 M sulfuric acid, then ELISA plates were read at 450 nm. […] Secondary ELISA screens were performed similarly to the protocol detailed above.
For the molecule B1, the binding result is “binds”.

For the molecule B2, the binding result is “binds”.

For the molecule B3, the binding result is on record as “binds”.

As for B4, the binding result is on record as “binds”.

As for B5, the binding result is on record as “binds”.

In the case of B6, the binding result is “binds”.

As for B7, the binding result is “binds”.

For B8, the binding result was “binds”.

As to B9, the binding result was “binds”.

Turning to B10, the binding result is “binds”.

For B11, the binding result is recorded as “binds”.

With B12, the binding result was “binds”.

With B13, the binding result is on record as “binds”.

For the molecule B14, the binding result was “binds”.

Regarding B15, the binding result is on record as “binds”.

The target is the same in another assay. Kind of assay: phage ELISA on DR4/Fc. The source holds these as a separate data set.
For B16, the binding result is on record as “binds”.

On to B17, for which the binding result is given as “binds”.

On to B18, for which the binding result is “binds”.

For B19, the binding result is on record as “binds”.

As for B20, the binding result is recorded as “binds”.

Regarding B21, the binding result is given as “binds”.

Consider B22, for which the binding result was “binds”.

As for B23, the binding result is given as “binds”.

A further assay concerns the target T2, DR4 (TRAIL-R1) on cancer cells. Put plainly: cell-based or functional assay.
Take B24: the “Colo205 % killing (% of TRAIL activity)” value was -1%, the “H2122 % killing (% of TRAIL activity)” value is -2% and the “ST486 % killing (% of TRAIL activity)” value came to 57%.

B25: the “Colo205 % killing (% of TRAIL activity)” value is -21%, the “H2122 % killing (% of TRAIL activity)” value was -3% and the “ST486 % killing (% of TRAIL activity)” value is 28%.

As for B26, the “Colo205 % killing (% of TRAIL activity)” value is -10%, the “H2122 % killing (% of TRAIL activity)” value is -1% and the “ST486 % killing (% of TRAIL activity)” value was 26%.

On to B27, for which the “Colo205 % killing (% of TRAIL activity)” value stood at 1%, the “H2122 % killing (% of TRAIL activity)” value came out at 4% and the “ST486 % killing (% of TRAIL activity)” value stood at 45%.

Regarding B28, the “Colo205 % killing (% of TRAIL activity)” value amounted to 7%, the “H2122 % killing (% of TRAIL activity)” value worked out at 3% and the “ST486 % killing (% of TRAIL activity)” value was determined as 34%.

Regarding B29, the “Colo205 % killing (% of TRAIL activity)” value is -25%, the “H2122 % killing (% of TRAIL activity)” value was -5% and the “ST486 % killing (% of TRAIL activity)” value was -15%.
